Test results as given in PMC4851429 (Structure (London, England : 1993), 2015).
Values belong to the binder of their own block, whether it stands above or below them.

B3: human FLRT3 LRR domain (residues K29-D357) (domain or fragment, UniProt Q9NZU0 29-357, looked up)
chain: KSCPSVCRCDAGFIYCNDRFLTSIPTGIPEDATTLYLQNNQINNAGIPSDLKNLLKVERIYLYHNSLDEFPTNLPKYVKELHLQENNIRTITYDSLSKIPYLEELHLDDNSVSAVSIEEGAFRDSNYLRLLFLSRNHLSTIPWGLPRTIEELRLDDNRISTISSPSLQGLTSLKRLVLDGNLLNNHGLGDKVFFNLVNLTELSLVRNSLTAAPVNLPGTNLRKLYLQDNHINRVPPNAFSYLRQLYRLDMSNNNLSNLPQGIFDDLDNITQLILRNNPWYCGCKMKWVRDWLQSLPVKVNVRGLMCQAPEKVRGMAIKDLNAELFDCKD
modifications: N-linked glycosylation observed at N226

Assays:
[1] = biological target: B3; experiment: flow cytometry on cells
[2] = biological target: B3; experiment: BLI
[3] = biological target: the molecule itself; experiment: SEC

binding result [1]: binds
B1: biotinylated human LPHN3 olfactomedin domain (residues V132-G392) (domain or fragment, UniProt Q9HAR2 132-392, looked up)
chain: VFLCPGLLKGVYQSEHLFESDHQSGAWCKDPLQASDKIYYMPWTPYRTDTLTEYSSKDDFIAGRPTTTYKLPHRVDGTGFVVYDGALFFNKERTRNIVKFDLRTRIKSGEAIIANANYHDTSPYRWGGKSDIDLAVDENGLWVIYATEQNNGKIVISQLNPYTLRIEGTWDTAYDKRSASNAFMICGILYVVKSVYEDDDNEATGNKIDYIYNTDQSKDSLVDVPFPNSYQYIAAVDYNPRDNLLYVWNNYHVVKYSLDFG
modifications: biotin (biotinylated; residue not stated)

Kd [2]: 220 to 260 nM
B2: human LPHN3 olfactomedin domain (residues V132-G392) (domain or fragment, UniProt Q9HAR2 132-392, looked up)
chain: VFLCPGLLKGVYQSEHLFESDHQSGAWCKDPLQASDKIYYMPWTPYRTDTLTEYSSKDDFIAGRPTTTYKLPHRVDGTGFVVYDGALFFNKERTRNIVKFDLRTRIKSGEAIIANANYHDTSPYRWGGKSDIDLAVDENGLWVIYATEQNNGKIVISQLNPYTLRIEGTWDTAYDKRSASNAFMICGILYVVKSVYEDDDNEATGNKIDYIYNTDQSKDSLVDVPFPNSYQYIAAVDYNPRDNLLYVWNNYHVVKYSLDFG

Binder: B3
stoichiometry N [3]: 2
